Here are results for 66 substances from the array DNA melting data of Ke et al..

The data set can be described thus: melting temperature; melt of duplexes. The note with it: sodium 0.0675 M; strand 1 µM.
Broadly, the Tm is the temperature at which the thermal transition is half complete. Regarding “CGACGTGCAACATGTGCTG+CAGCACATATAGCACGTCG ((((((((.(.((((((((+)))))))).).))))))))”, the Tm was found to be 49.1 °C.

Take “CGACGTGCAAGATGTGCTG+CAGCACATGGGGCACGTCG ((((((((...((((((((+))))))))...))))))))”: the Tm came out at 50.8 °C.

For the substance “CGACGTGCCCCATGTGCTG+CAGCACATAGCGCACGTCG ((((((((.(.((((((((+)))))))).).))))))))”, the Tm came to 47.3 °C.

As to “CGACGTGCGGGATGTGCTG+CAGCACATCCCGCACGTCG (((((((((((((((((((+)))))))))))))))))))”, the Tm stood at 67.7 °C.

With “CGACGTGCTTTATGTGCTG+CAGCACATGTGGCACGTCG ((((((((...((((((((+))))))))...))))))))”, the Tm was 49.6 °C.

Consider “CGACGTGCCACATGTGCTG+CAGCACATCCCGCACGTCG ((((((((...((((((((+))))))))...))))))))”, for which the Tm is 46.3 °C.

On to “CGACGTGCCTTATGTGCTG+CAGCACATCCCGCACGTCG ((((((((...((((((((+))))))))...))))))))”, for which the Tm stood at 46.8 °C.

Turning to “CGACGTGCTCCATGTGCTG+CAGCACATTTCGCACGTCG ((((((((...((((((((+))))))))...))))))))”, the Tm came out at 45.7 °C.

Turning to “CGACGTGCCATATGTGCTG+CAGCACATACAGCACGTCG ((((((((..(((((((((+)))))))))..))))))))”, the Tm came out at 49.9 °C.

Regarding “CGACGTGCCGTATGTGCTG+CAGCACATGACGCACGTCG ((((((((...((((((((+))))))))...))))))))”, the Tm came out at 47.8 °C.

As to “CGACGTGCGTAATGTGCTG+CAGCACATGCCGCACGTCG (((((((((..((((((((+))))))))..)))))))))”, the melting temperature (Tm) stood at 54.9 °C.

As to “CGACGTGCTCGATGTGCTG+CAGCACATTTGGCACGTCG ((((((((...((((((((+))))))))...))))))))”, the Tm was determined as 50.3 °C.

For “CGACGTGCATAATGTGCTG+CAGCACATTATGCACGTCG (((((((((((((((((((+)))))))))))))))))))”, the Tm came out at 61.8 °C.

In the case of “CGACGTGCTACATGTGCTG+CAGCACATTTGGCACGTCG ((((((((.(.((((((((+)))))))).).))))))))”, the Tm was 51.1 °C.

For the substance “CGACGTGCTTGATGTGCTG+CAGCACATACTGCACGTCG ((((((((...((((((((+))))))))...))))))))”, the Tm is 50.4 °C.

Take “CGACGTGCCGCATGTGCTG+CAGCACATCTCGCACGTCG ((((((((...((((((((+))))))))...))))))))”: the Tm amounted to 47.8 °C.

In the case of “CGACGTGCATGATGTGCTG+CAGCACATATTGCACGTCG (((((((((..((((((((+))))))))..)))))))))”, the Tm was determined as 52.3 °C.

As to “CGACGTGCCTGATGTGCTG+CAGCACATTGGGCACGTCG (((((((((..((((((((+))))))))..)))))))))”, the Tm was found to be 57.1 °C.

As to “CGACGTGCCTTATGTGCTG+CAGCACATGCGGCACGTCG (((((((((..((((((((+))))))))..)))))))))”, the Tm stood at 52.3 °C.

As to “CGACGTGCGGCATGTGCTG+CAGCACATATCGCACGTCG (((((((((..((((((((+))))))))..)))))))))”, the melting temperature (Tm) came out at 54.7 °C.

“CGACGTGCATGATGTGCTG+CAGCACATGTTGCACGTCG (((((((((..((((((((+))))))))..)))))))))”: the midpoint of thermal melting (Tm) was 52.2 °C.

As to “CGACGTGCCCGATGTGCTG+CAGCACATATCGCACGTCG ((((((((...((((((((+))))))))...))))))))”, the Tm came to 47.2 °C.

As for “CGACGTGCTCCATGTGCTG+CAGCACATCCAGCACGTCG (((((((((..((((((((+))))))))..)))))))))”, the Tm worked out at 48.7 °C.

As to “CGACGTGCTTCATGTGCTG+CAGCACATCTAGCACGTCG (((((((((..((((((((+))))))))..)))))))))”, the Tm is 50.3 °C.

For the substance “CGACGTGCGTAATGTGCTG+CAGCACATCAAGCACGTCG ((((((((.(.((((((((+)))))))).).))))))))”, the Tm was found to be 53.4 °C.

As to “CGACGTGCGCCATGTGCTG+CAGCACATATGGCACGTCG ((((((((...((((((((+))))))))...))))))))”, the Tm turned out to be 48.1 °C.

For the substance “CGACGTGCCAGATGTGCTG+CAGCACATCAGGCACGTCG (((((((((.(((((((((+))))))))).)))))))))”, the Tm is 59.8 °C.

Take “CGACGTGCCAAATGTGCTG+CAGCACATGGGGCACGTCG (((((((((..((((((((+))))))))..)))))))))”: the Tm worked out at 56.6 °C.

As for “CGACGTGCCTTATGTGCTG+CAGCACATGGTGCACGTCG ((((((((...((((((((+))))))))...))))))))”, the Tm is 46 °C.

In the case of “CGACGTGCTGGATGTGCTG+CAGCACATCTTGCACGTCG ((((((((..(((((((((+)))))))))..))))))))”, the Tm came to 56.6 °C.

Consider “CGACGTGCTTAATGTGCTG+CAGCACATGCAGCACGTCG (((((((((..((((((((+))))))))..)))))))))”, for which the Tm worked out at 52 °C.

“CGACGTGCGGGATGTGCTG+CAGCACATGCGGCACGTCG ((((((((.(.((((((((+)))))))).).))))))))”: the Tm was determined as 55.4 °C.

As for “CGACGTGCATTATGTGCTG+CAGCACATTGAGCACGTCG ((((((((...((((((((+))))))))...))))))))”, the Tm worked out at 49.5 °C.

Turning to “CGACGTGCCTGATGTGCTG+CAGCACATTTTGCACGTCG ((((((((...((((((((+))))))))...))))))))”, the Tm amounted to 48.8 °C.

As to “CGACGTGCATAATGTGCTG+CAGCACATACGGCACGTCG ((((((((...((((((((+))))))))...))))))))”, the Tm was 47.3 °C.

As to “CGACGTGCTATATGTGCTG+CAGCACATTTAGCACGTCG ((((((((((.((((((((+)))))))).))))))))))”, the Tm is 55.3 °C.

With “CGACGTGCGCAATGTGCTG+CAGCACATGCCGCACGTCG (((((((((..((((((((+))))))))..)))))))))”, the melting temperature (Tm) was 56.6 °C.

On to “CGACGTGCGGGATGTGCTG+CAGCACATTTAGCACGTCG ((((((((...((((((((+))))))))...))))))))”, for which the Tm was 53.4 °C.

For “CGACGTGCTGAATGTGCTG+CAGCACATCGGGCACGTCG ((((((((...((((((((+))))))))...))))))))”, the Tm amounted to 50.9 °C.

As to “CGACGTGCCTGATGTGCTG+CAGCACATACCGCACGTCG ((((((((...((((((((+))))))))...))))))))”, the Tm came out at 48.1 °C.

In the case of “CGACGTGCCACATGTGCTG+CAGCACATACTGCACGTCG ((((((((...((((((((+))))))))...))))))))”, the Tm came to 47.2 °C.

Consider “CGACGTGCAAGATGTGCTG+CAGCACATGTTGCACGTCG ((((((((((.((((((((+)))))))).))))))))))”, for which the Tm is 57.8 °C.

With “CGACGTGCTCCATGTGCTG+CAGCACATCACGCACGTCG ((((((((...((((((((+))))))))...))))))))”, the Tm was 47 °C.

As to “CGACGTGCGCTATGTGCTG+CAGCACATGTTGCACGTCG ((((((((...((((((((+))))))))...))))))))”, the Tm was 49.6 °C.

“CGACGTGCCGGATGTGCTG+CAGCACATTATGCACGTCG ((((((((...((((((((+))))))))...))))))))”: the Tm worked out at 49.7 °C.

As to “CGACGTGCGGGATGTGCTG+CAGCACATCCTGCACGTCG ((((((((.((((((((((+)))))))))).))))))))”, the midpoint of thermal melting (Tm) came to 62.6 °C.

For “CGACGTGCAGAATGTGCTG+CAGCACATGCTGCACGTCG ((((((((((.((((((((+)))))))).))))))))))”, the Tm was found to be 58.6 °C.

With “CGACGTGCCGCATGTGCTG+CAGCACATGCAGCACGTCG ((((((((.((((((((((+)))))))))).))))))))”, the Tm is 60 °C.

Consider “CGACGTGCTGCATGTGCTG+CAGCACATGCAGCACGTCG (((((((((((((((((((+)))))))))))))))))))”, for which the Tm is 67.5 °C.

Regarding “CGACGTGCAGAATGTGCTG+CAGCACATTCGGCACGTCG ((((((((.((((((((((+)))))))))).))))))))”, the melting temperature (Tm) was 59.9 °C.

As to “CGACGTGCGTCATGTGCTG+CAGCACATGCGGCACGTCG ((((((((..(((((((((+)))))))))..))))))))”, the melting temperature (Tm) stood at 54.4 °C.

In the case of “CGACGTGCCTGATGTGCTG+CAGCACATGCCGCACGTCG ((((((((...((((((((+))))))))...))))))))”, the midpoint of thermal melting (Tm) is 47.5 °C.

In the case of “CGACGTGCGGGATGTGCTG+CAGCACATCGAGCACGTCG ((((((((..(((((((((+)))))))))..))))))))”, the midpoint of thermal melting (Tm) is 58.1 °C.

In the case of “CGACGTGCTTCATGTGCTG+CAGCACATCCGGCACGTCG ((((((((...((((((((+))))))))...))))))))”, the Tm amounted to 47.8 °C.

With “CGACGTGCGAAATGTGCTG+CAGCACATGAAGCACGTCG ((((((((...((((((((+))))))))...))))))))”, the Tm turned out to be 59.3 °C.

Consider “CGACGTGCCTTATGTGCTG+CAGCACATTGAGCACGTCG ((((((((...((((((((+))))))))...))))))))”, for which the Tm came out at 49.6 °C.

“CGACGTGCAGCATGTGCTG+CAGCACATGGGGCACGTCG ((((((((..(((((((((+)))))))))..))))))))”: the Tm came to 56.9 °C.

As for “CGACGTGCACTATGTGCTG+CAGCACATGGTGCACGTCG ((((((((((.((((((((+)))))))).))))))))))”, the Tm turned out to be 56.6 °C.

As for “CGACGTGCGCAATGTGCTG+CAGCACATCTCGCACGTCG (((((((((..((((((((+))))))))..)))))))))”, the Tm worked out at 52.8 °C.

“CGACGTGCTCTATGTGCTG+CAGCACATAAAGCACGTCG (((((((((.(((((((((+))))))))).)))))))))”: the Tm was determined as 54 °C.

With “CGACGTGCATGATGTGCTG+CAGCACATGATGCACGTCG ((((((((((.((((((((+)))))))).))))))))))”, the midpoint of thermal melting (Tm) turned out to be 56.8 °C.

As for “CGACGTGCAAAATGTGCTG+CAGCACATAGTGCACGTCG (((((((((..((((((((+))))))))..)))))))))”, the Tm stood at 47 °C.

Consider “CGACGTGCGGAATGTGCTG+CAGCACATCTTGCACGTCG ((((((((...((((((((+))))))))...))))))))”, for which the Tm was found to be 50.8 °C.

With “CGACGTGCGCAATGTGCTG+CAGCACATCTAGCACGTCG ((((((((...((((((((+))))))))...))))))))”, the melting temperature (Tm) worked out at 51.8 °C.

Take “CGACGTGCGTGATGTGCTG+CAGCACATTTTGCACGTCG ((((((((...((((((((+))))))))...))))))))”: the Tm came to 50.7 °C.

“CGACGTGCTGAATGTGCTG+CAGCACATCAGGCACGTCG ((((((((...((((((((+))))))))...))))))))”: the Tm was 53.5 °C.
